No end group written: not given here. *: point of attachment. FITC = O=C1OC2(c3ccc(O)cc3Oc3cc(O)ccc32)c2ccc(NC(=S)*)cc21
T1: Full-length S. cerevisiae Pex5 (S. cerevisiae, UniProt P35056 1-612)
T1 sequence: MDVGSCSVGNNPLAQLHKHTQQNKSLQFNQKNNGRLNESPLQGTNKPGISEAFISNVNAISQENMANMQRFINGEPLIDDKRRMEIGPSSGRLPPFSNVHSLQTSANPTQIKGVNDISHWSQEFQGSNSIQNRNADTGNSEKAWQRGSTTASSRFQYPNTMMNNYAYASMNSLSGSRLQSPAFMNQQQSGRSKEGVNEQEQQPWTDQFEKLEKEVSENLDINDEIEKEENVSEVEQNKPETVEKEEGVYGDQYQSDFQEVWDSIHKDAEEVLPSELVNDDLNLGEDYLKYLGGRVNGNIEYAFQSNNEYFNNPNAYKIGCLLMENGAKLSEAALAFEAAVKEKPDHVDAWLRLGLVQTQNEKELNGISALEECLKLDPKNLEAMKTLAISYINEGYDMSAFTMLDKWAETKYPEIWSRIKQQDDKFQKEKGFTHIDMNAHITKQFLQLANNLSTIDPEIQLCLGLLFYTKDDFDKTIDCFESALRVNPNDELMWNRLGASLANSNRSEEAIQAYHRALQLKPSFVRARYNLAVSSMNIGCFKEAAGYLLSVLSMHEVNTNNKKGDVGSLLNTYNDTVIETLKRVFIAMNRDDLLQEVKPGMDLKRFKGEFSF


Target: T1, Full-length S. cerevisiae Pex5
Assay: fluorescence polarisation

Binder | Kd
{FITC}-GMDELYKSKL [mCherry-SKL peptide (FITC-GMDELYKSKL)] | 9840 nM
{FITC}-YKSSRNKSKL [Pcs60 peptide (FITC-YKSSRNKSKL)] | 455 ± 43.8 nM
{FITC}-YARVKRSSRL [Lys1 peptide (FITC-YARVKRSSRL)] | 29.3 ± 3.65 nM
{FITC}-YNENKRKAKL [Cat2 peptide (FITC-YNENKRKAKL)] | 49.9 ± 4.1 nM
